From PMC3832651, “Characterization of Neutral Lipase BT-1 Isolated from the Labial Gland of Bombus terrestris Males” (PLoS ONE, 2013)

Substrate: CCCCCCCCCCCC(=O)Oc1ccc([N+](=O)[O-])cc1
Assay: purified protein
Type: biochemical, Bombus terrestris
Details: 50 mM Tris/HCl, pH 8.2, 25°C, p-NPL 0.05-0.4 mM added in 2-propanol

B1: lipase BT-1 (Bombus terrestris) (protein)
chain: VICDVEDTLHVSRKIRLKIYKGNSSYFSSTESMVMNPGNIADDILPDRDSILYIHGFLENTEAENVRVIIRAYLDKGDVNVIVLDWGEIAFNINYVYVSSQVVTIAKAVAESLKKLVDLIDLDTLHVIGHSLGAHIAGNIGRYANINLSRITGLDPALPLFYPSTCHVRSTDAEAVVILHTDGGFYGTATNTGTIDFYVNGGSSVQPGCPIIFGGEFCSHQRSTRIYAESLLNPKAFPAHKCLNEIADTEEVYFGDSTPKDIYGTYCFNTNAKPPYGKTI
notes: native, purified from labial gland (cephalic part) of 2- to 3-day-old males on octyl-agarose, Triton X-100 desorption; ~30 kDa on SDS-PAGE; identified by MS (18 peptides); catalytic triad Ser155, Asp179, His244
- Km: 1.1 ± 0.3 µM
- Vmax: 0.15 µmol/min/mg
